{"source": "patent US20180155451A1", "about": "(published 2018)", "binders": {"B1": {"name": "H240-Kn120/H240-Hl174/L73-k0 (antibody, human IgG1, kappa)", "heavy 1": "QDQLVQSGAEVKKPGASVKVSCKASGFNIKDTYIQWVRQAPGQGLEWMGRIDPLRKQTKYREKFEGRVTITADTSTNTAYMELSSLRSEDTAVYYCVRSGREFDYWGQGTLVTVSSASTKGPSVFPLAPSSKSTSGGTAALGCLVKDYFPEPVTVSWNSGALTSGVHTFPAVLQSSGLYSLSSVVTVPSSSLGTQTYICNVNHKPSNTKVDKKVEPKSCDKTHTCPPCPAPEYYWGPMVFLFPPKPKDTLMISRTPEVTCVVVDVSDEDPEVKFNWYVDGVEVHNAKTKPREEQYNATYRVVSVLTVLHQDWLNGKEYKCKVSNKDLPAPIEKTISKAKGQPREPQVCTLPPSRDELTKNQVSLWCLVKGFYPSDIAVEWESNGQPENNYKTTPPVLDSDGSFFLYSKLTVDKSRWQQGNVFSCSVMHEALHNHYTQKSLSLSP", "heavy 2": "QDQLVQSGAEVKKPGASVKVSCKASGFNIKDTYIQWVRQAPGQGLEWMGRIDPLRKQTKYREKFEGRVTITADTSTNTAYMELSSLRSEDTAVYYCVRSGREFDYWGQGTLVTVSSASTKGPSVFPLAPSSKSTSGGTAALGCLVKDYFPEPVTVSWNSGALTSGVHTFPAVLQSSGLYSLSSVVTVPSSSLGTQTYICNVNHKPSNTKVDKKVEPKSCDKTHTCPPCPAPELLGGPSVFLFPPKPKDTLMISRTPEVTCVVVDVSHEEPEVKFNWYVDGVEVHNAKTKPREEQYNSTYRVVSVLTVLHQDWLNGKEYKCKVSNDALPKPEEETISKAKGQPREPQVYTLPPSRCELTKNQVSLSCAVKGFYPSDIAVEWESNGQPENNYKTTPPVLDSDGSFFLVSKLTVDKSRWQQGNVFSCSVMHEALHNHYTQKSLSLSP", "light": "DIQMTQSPSSLSASVGDRVTITCRASQDIHKYIAWYQQKPGQAPRLLIQYTSTLQPGVPSRFSGSGSGTDYTFTISSLQPEDIATYYCLQYEQLRTFGGGTKVEIKRTVAAPSVFIFPPSDEQLKSGTASVVCLLNNFYPREAKVQWKVDNALQSGNSQESVTEQDSKDSTYSLSSTLTLSKADYEKHKVYACEVTHQGLSSPVTKSFNRGEC", "notes": "Heterodimerized anti-epiregulin IgG1 antibody; I332E introduced into H240-Hl068; also called H240-Kn120/H240-HI174/L73-k0"}, "B2": {"name": "H240-Kn120/H240-Hl182/L73-k0 (antibody, human IgG1, kappa)", "heavy 1": "QDQLVQSGAEVKKPGASVKVSCKASGFNIKDTYIQWVRQAPGQGLEWMGRIDPLRKQTKYREKFEGRVTITADTSTNTAYMELSSLRSEDTAVYYCVRSGREFDYWGQGTLVTVSSASTKGPSVFPLAPSSKSTSGGTAALGCLVKDYFPEPVTVSWNSGALTSGVHTFPAVLQSSGLYSLSSVVTVPSSSLGTQTYICNVNHKPSNTKVDKKVEPKSCDKTHTCPPCPAPEYYWGPMVFLFPPKPKDTLMISRTPEVTCVVVDVSDEDPEVKFNWYVDGVEVHNAKTKPREEQYNATYRVVSVLTVLHQDWLNGKEYKCKVSNKDLPAPIEKTISKAKGQPREPQVCTLPPSRDELTKNQVSLWCLVKGFYPSDIAVEWESNGQPENNYKTTPPVLDSDGSFFLYSKLTVDKSRWQQGNVFSCSVMHEALHNHYTQKSLSLSP", "heavy 2": "QDQLVQSGAEVKKPGASVKVSCKASGFNIKDTYIQWVRQAPGQGLEWMGRIDPLRKQTKYREKFEGRVTITADTSTNTAYMELSSLRSEDTAVYYCVRSGREFDYWGQGTLVTVSSASTKGPSVFPLAPSSKSTSGGTAALGCLVKDYFPEPVTVSWNSGALTSGVHTFPAVLQSSGLYSLSSVVTVPSSSLGTQTYICNVNHKPSNTKVDKKVEPKSCDKTHTCPPCPHPELLGGPSVFLFPPKPKDTLMISRTPEVTCVVVDVSHEEPEVKFNWYVDGVEVHNAKTKPREEQYNSTYRVVSVLTVLHQDWLNGKEYKCKVSNDALPKPIEETISKAKGQPREPQVYTLPPSRCELTKNQVSLSCAVKGFYPSDIAVEWESNGQPENNYKTTPPVLDSDGSFFLVSKLTVDKSRWQQGNVFSCSVMHEALHNHYTQKSLSLSP", "light": "DIQMTQSPSSLSASVGDRVTITCRASQDIHKYIAWYQQKPGQAPRLLIQYTSTLQPGVPSRFSGSGSGTDYTFTISSLQPEDIATYYCLQYEQLRTFGGGTKVEIKRTVAAPSVFIFPPSDEQLKSGTASVVCLLNNFYPREAKVQWKVDNALQSGNSQESVTEQDSKDSTYSLSSTLTLSKADYEKHKVYACEVTHQGLSSPVTKSFNRGEC", "notes": "Heterodimerized anti-epiregulin IgG1 antibody; A231H introduced into H240-Hl068; also called H240-Kn120/H240-HI182/L73-k0"}}, "key": {"FcgRIIIaF [1]": {"target": "T1, FcgRIIIaF (human, UniProt P08637 17-208)", "T1 construct": "extracellular domain; Soluble extracellular domain with C-terminal His tag; polymorphic site made after J. Clin. Invest; also called FcγRIIIa F; not shown: His tag attached to the C terminus", "T1 sequence (P08637 17-208)": "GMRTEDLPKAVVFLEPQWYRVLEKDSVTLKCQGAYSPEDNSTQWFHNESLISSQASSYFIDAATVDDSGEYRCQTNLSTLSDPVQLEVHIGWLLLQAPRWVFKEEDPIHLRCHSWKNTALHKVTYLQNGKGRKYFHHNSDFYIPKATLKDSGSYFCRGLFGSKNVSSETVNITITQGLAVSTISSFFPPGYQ", "test": "SPR (Biacore); KD of H240-Kn120/H240-Hl068/L73-k0 divided by KD of this antibody", "experimental": "(§1) Analysis of interaction between obj ective antibody and the FcγR was carried out using Biacore T100 (GE Healthcare), Biacore T200, Biacore A100, and Biacore 4000."}, "FcgRIIIaV [2]": {"target": "T2, FcgRIIIaV (human, UniProt P08637 17-208)", "T2 construct": "extracellular domain; Soluble extracellular domain with C-terminal His tag; polymorphic site made after J. Clin. Invest; also called FcγRIIIa V; not shown: His tag attached to the C terminus", "T2 sequence (P08637 17-208 F176V limits assumed)": "as the sequence (P08637 17-208) above, with F160V counted along it", "test": "SPR (Biacore); KD of H240-Kn120/H240-Hl068/L73-k0 divided by KD of this antibody", "experimental": "as §1"}, "FcgRIIaR [3]": {"target": "T3, FcgRIIaR (human, UniProt P12318 34-217)", "T3 construct": "extracellular domain; Soluble extracellular domain with C-terminal His tag; also called FcγRIIa R; FcγRIIa type R; not shown: His tag attached to the C terminus", "T3 sequence (looked up)": "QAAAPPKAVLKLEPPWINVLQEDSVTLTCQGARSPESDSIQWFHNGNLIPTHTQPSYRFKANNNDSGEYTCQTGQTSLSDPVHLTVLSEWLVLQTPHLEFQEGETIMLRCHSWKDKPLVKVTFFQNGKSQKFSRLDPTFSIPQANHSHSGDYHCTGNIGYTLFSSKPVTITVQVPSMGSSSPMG", "test": "SPR (Biacore); KD of H240-Kn120/H240-Hl068/L73-k0 divided by KD of this antibody", "experimental": "as §1"}, "FcgRIIb [4]": {"target": "T4, FcgRIIb (human, UniProt P31994 43-217)", "T4 construct": "extracellular domain; Soluble extracellular domain with C-terminal His tag; also called FcγRIIb; CD32B; not shown: His tag attached to the C terminus", "T4 sequence (looked up)": "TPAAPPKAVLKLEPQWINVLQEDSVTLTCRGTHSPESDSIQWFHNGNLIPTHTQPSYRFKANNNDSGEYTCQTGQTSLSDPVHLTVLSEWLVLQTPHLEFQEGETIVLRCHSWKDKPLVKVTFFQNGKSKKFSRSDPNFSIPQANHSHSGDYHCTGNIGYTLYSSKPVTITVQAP", "test": "SPR (Biacore); KD of H240-Kn120/H240-Hl068/L73-k0 divided by KD of this antibody", "experimental": "as §1"}, "FcgRIa [5]": {"target": "T5, FcgRIa (human, UniProt P12314 16-292)", "T5 construct": "extracellular domain; Soluble extracellular domain with C-terminal His tag, expressed in FreeStyle293 cells; also called FcγRIa; FcγRI; not shown: His tag attached to the C terminus", "T5 sequence (P12314 16-292)": "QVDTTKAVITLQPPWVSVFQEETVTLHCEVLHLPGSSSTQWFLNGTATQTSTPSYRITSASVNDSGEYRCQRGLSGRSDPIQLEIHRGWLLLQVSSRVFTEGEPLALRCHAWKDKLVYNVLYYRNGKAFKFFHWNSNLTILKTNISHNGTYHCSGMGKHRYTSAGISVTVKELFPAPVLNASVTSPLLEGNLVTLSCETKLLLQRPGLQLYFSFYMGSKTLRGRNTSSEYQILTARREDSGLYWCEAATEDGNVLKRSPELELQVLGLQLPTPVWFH", "test": "SPR (Biacore); KD of H240-Kn120/H240-Hl068/L73-k0 divided by KD of this antibody", "experimental": "as §1"}, "FcgRIIaH [6]": {"target": "T6, FcgRIIaH (human, UniProt P12318 34-217)", "T6 construct": "extracellular domain; Soluble extracellular domain with C-terminal His tag; also called FcγRIIa H; FcγRIIa type H; not shown: His tag attached to the C terminus", "T6 sequence (looked up)": "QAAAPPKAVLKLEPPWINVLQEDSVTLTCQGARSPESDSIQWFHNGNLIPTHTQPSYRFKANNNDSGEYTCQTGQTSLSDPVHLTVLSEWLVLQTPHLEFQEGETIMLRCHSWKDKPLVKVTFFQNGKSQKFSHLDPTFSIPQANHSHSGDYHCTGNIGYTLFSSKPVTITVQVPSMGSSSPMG", "test": "SPR (Biacore); KD of H240-Kn120/H240-Hl068/L73-k0 divided by KD of this antibody", "experimental": "as §1"}, "FcgRIIIaF [7]": {"target": "T1, FcgRIIIaF", "test": "SPR (Biacore), antibody captured, FcgR as analyte", "experimental": "(§2) Analysis of interaction between obj ective antibody and the FcγR was carried out using Biacore T100 (GE Healthcare), Biacore T200, Biacore A100, and Biacore 4000. HBS-EP+ (GE Healthcare) was used as the running buffer, and the measurement temperature was set to 25° C. Chips produced by immobilizing the antigen peptide by the amine coupling method to a Series S sensor Chip CM5 (GE Healthcare), chips produced by allowing preliminarily biotinylated antigen peptides to interact with and immobilize onto a Series S Sensor Chip SA (certified) (GE Healthcare), chips produced by immobilizing Protein L (ACTIGEN, BioVision) to Series S Sencor Chip CM5 (GE Healthcare), or chips produced by immobilizing Protein A/G (Thermo Scientific) to Series S Sencor Chip CM5 (GE Healthcare) were used. Antibodies of interest were captured onto these chips, and allowed to interact to each FcγR diluted with running buffer. To regenerate and repeatedly use the chip, the antibodies captured onto the chip were washed off by reacting 10 mM glycine-HCl, pH 1.5."}, "FcgRIIIaV [8]": {"target": "T2, FcgRIIIaV", "test": "SPR (Biacore), antibody captured, FcgR as analyte", "experimental": "as §2"}, "FcgRIIaR [9]": {"target": "T3, FcgRIIaR", "test": "SPR (Biacore), antibody captured, FcgR as analyte", "experimental": "as §2"}, "FcgRIIb [10]": {"target": "T4, FcgRIIb", "test": "SPR (Biacore), antibody captured, FcgR as analyte", "experimental": "as §2"}, "FcgRIa [11]": {"target": "T5, FcgRIa", "test": "SPR (Biacore), antibody captured, FcgR as analyte", "experimental": "as §2"}, "FcgRIIaH [12]": {"target": "T6, FcgRIIaH", "test": "SPR (Biacore), antibody captured, FcgR as analyte", "experimental": "as §2"}}, "data": [{"binder": "B1", "values": [{"measurement": "Relative KD", "setting": "FcgRIIIaF [1]", "result": 4.3}, {"measurement": "Relative KD", "setting": "FcgRIIIaV [2]", "result": 10}, {"measurement": "Relative KD", "setting": "FcgRIIaR [3]", "result": 0.7}, {"measurement": "Relative KD", "setting": "FcgRIIb [4]", "result": 1.2}, {"measurement": "Relative KD", "setting": "FcgRIa [5]", "result": 1.1}, {"measurement": "Relative KD", "setting": "FcgRIIaH [6]", "result": 0.7}, {"measurement": "Kd", "setting": "FcgRIIIaF [7]", "result": 0.51, "unit": "nM"}, {"measurement": "Kd", "setting": "FcgRIIIaV [8]", "result": 0.036, "unit": "nM"}, {"measurement": "Kd", "setting": "FcgRIIaR [9]", "result": 30, "unit": "nM"}, {"measurement": "Kd", "setting": "FcgRIIb [10]", "result": 130, "unit": "nM"}, {"measurement": "Kd", "setting": "FcgRIa [11]", "result": 0.14, "unit": "nM"}, {"measurement": "Kd", "setting": "FcgRIIaH [12]", "result": 55, "unit": "nM"}]}, {"binder": "B2", "values": [{"measurement": "Relative KD", "setting": "FcgRIIIaF [1]", "result": 0.7}, {"measurement": "Relative KD", "setting": "FcgRIIIaV [2]", "result": 1.2}, {"measurement": "Relative KD", "setting": "FcgRIIaR [3]", "result": 0.5}, {"measurement": "Relative KD", "setting": "FcgRIIb [4]", "result": 0.6}, {"measurement": "Relative KD", "setting": "FcgRIa [5]", "result": 0.9}, {"measurement": "Relative KD", "setting": "FcgRIIaH [6]", "result": 0.5}, {"measurement": "Kd", "setting": "FcgRIIIaF [7]", "result": 3.1, "unit": "nM"}, {"measurement": "Kd", "setting": "FcgRIIIaV [8]", "result": 0.29, "unit": "nM"}, {"measurement": "Kd", "setting": "FcgRIIaR [9]", "result": 40, "unit": "nM"}, {"measurement": "Kd", "setting": "FcgRIIb [10]", "result": 240, "unit": "nM"}, {"measurement": "Kd", "setting": "FcgRIa [11]", "result": 0.18, "unit": "nM"}, {"measurement": "Kd", "setting": "FcgRIIaH [12]", "result": 77, "unit": "nM"}]}]}
